B1: PTH: parathyroid hormone, single polypeptide chain of 84 amino acids, endogenous in plasma samples of dialysis patients (protein, UniProt P01270 32-115, looked up)
Parathyroid hormone: SVSEIQLMHNLGKHLNSMERVEWLRKKLQDVHNFVALGAPLAPRDAGSQRPRKKEDNVLVESHEKSLGEADKADVNVLTKAKSQ
modifications: Parathyroid hormone
notes: parathyroid hormone, single polypeptide chain of 84 amino acids, endogenous in plasma samples of dialysis patients

Experiments:
[1] = test system: captor antibody against the N-terminal PTH fragment (anti-hPTH(1-34)); assay: Spiking experiments with hPTH(1-37) fragments, Nichols IRMA intact PTH test; type: binding, goat; conditions: 1000 pM hPTH(1-37) added
Experimental: The Nichols Intact PTH Assay (Nichols Institute, San Juan Capistrano, Calif., U.S.A) is a double binding immunoradiometry assay (IRMA) with two polyclonal goat antibodies. […] The second detection antibody, marked with ^125Iodine, recognizes an epitope in the N-terminal section of the PTH (anti-hPTH(1-34)). The sample was incubated at the same time with the antibody coated beads and the ^125Iodine marked detection antibody overnight (12±2 h) at room temperature. After the incubation, the beads were washed and the radioactivity adhering to the solid phase measured in a gamma counter (LKB1277 Gamma Master from Perkin-Elmer). The dose measurement curve (MultiCalc Software) between bound radioactivity and concentration in the sample was determined strictly in accordance with the manufacturer's instructions via a standard measured at the same time. […]
The standard sample and the plasma pools where in each case treated with three different concentrations of hPTH(1-37) fragments in five different oxidation and state forms and then the recovered PTH contents determined. […]
There were produced from each fragment solution three initial concentrations (1000 nM, 100 nM and 10 nM). A further dilution of the fragment solutions 1:100 in the standard and in the pool plasma yielded final concentrations of […] in the sample to be analyzed. […]

[2] = test system: captor antibody used in the Roche Elecsys 2010 PTH test; assay: Oxidation and reduction of plasma samples, measured with Roche Elecsys 2010 PTH test
Experimental: The Roche Elecsys™ PTH assay is an electrochemiluminescence immunoassay (ECLIA) on the fully automatic immunoanalyzer Elecsys ^R2010. The epitope recognized by the biotinylated captor antibody contains the PTH amino acids 26 to 32 and the monoclonal ruthenium detection antibody recognizes, in accordance with the information from the manufacturer, an epitope in the region of the PTH amino acids 55 to 64. Sample and antibodies were incubated together for 9 minutes at 37° C., Streptavidin coated paramagnetic beads introduced to the incubation mixture, and finally incubated for further 9 minutes. After magnetic separation of the bonded conjugates from the free conjugates on an electrode surface the luminescence was determined and the end PTH concentration determined via a recalibrated master curve. The interassay variance in the lower and upper normal region was less than 7% CV and in the high concentration region 5% CV.
(§1) 30 plasma samples of dialysis patients and ESRD patients (ESRD=end stage renal disease) were selected at random and oxidized with hydrogen peroxide (30%; end concentration: 1.5 Mol/L) or reduced with sodium boron hydride (NaBH4, aqueous solution of 100 nMol/L). All samples, treated and untreated, where measured at the same time with the Roche Elecsys™2010 and the Nichols IRMA test.
(§2) The oxidation was effected with 30% hydrogen peroxide solution. The hydrogen peroxide concentration in the incubation preparation was at 17% of the 30% solution. All samples were incubated for 45 minutes at 37° C., then also cooled down to −70° C., lyophilized and stored at −20° C. until the quantitative PTH determination.
Of 20 samples an aliquot of each in the ratio 1:1 (v/v) was treated and reduced with a 100 nMol NaBH4 solution. Further, of 10 oxidized samples in each case an aliquot was reverse reduced by the addition of a 100 nMol NaBH4 solution in the ratio 1:1. The samples were incubated for 45 minutes at room temperature and the reaction stopped on dry ice. After the lyophilization the samples were deep frozen at −20° C. until determination. The diagrams of FIGS. 5 to 11 show the results.

[3] = test system: polyclonal antibodies employed in the Nichols test; assay: Oxidation and reduction of plasma samples, measured with Nichols IRMA; set-up: species or system goat; conditions: H2O2 oxidation
Experimental: The Nichols Intact PTH Assay (Nichols Institute, San Juan Capistrano, Calif., U.S.A) is a double binding immunoradiometry assay (IRMA) with two polyclonal goat antibodies. The captor antibody, immobilized in plastic beads, binds only in the middle or C-terminal section of the hPTH (anti-hPTH(39-89)). The second detection antibody, marked with ^125Iodine, recognizes an epitope in the N-terminal section of the PTH (anti-hPTH(1-34)). The sample was incubated at the same time with the antibody coated beads and the ^125Iodine marked detection antibody overnight (12±2 h) at room temperature. After the incubation, the beads were washed and the radioactivity adhering to the solid phase measured in a gamma counter (LKB1277 Gamma Master from Perkin-Elmer). The dose measurement curve (MultiCalc Software) between bound radioactivity and concentration in the sample was determined strictly in accordance with the manufacturer's instructions via a standard measured at the same time. The interassay variance in the normal and increased region was less than 10% CV.
as §1, §2
Of 20 samples an aliquot of each in the ratio 1:1 (v/v) was treated and reduced with a 100 nMol NaBH4 solution. Further, of 10 oxidized samples in each case an aliquot was reverse reduced by the addition of a 100 nMol NaBH4 solution in the ratio 1:1. […]

[4] = H2O2 oxidation, individual samples

| Molecule | signal reduction to % of the native measured sample [1] | measurement value after oxidation, average, of the initial value ([2]; H2O2 oxidation, 45 minutes at 37° C., plasma of dialysis and ESRD patients) | highest remaining measurement signal after oxidation, % of initial value [2, 4] | lowest remaining measurement signal after oxidation, % of initial value [2, 4] | measurement value after oxidation and reverse reduction, of the initial value ([2]; H2O2 then NaBH4) | concentration after oxidation, average, of the initial value [3] | highest remaining concentration after oxidation, % of initial value (smallest reduction) ([3]; individual samples) | lowest remaining concentration after oxidation, % of initial value (largest reduction) ([3]; individual samples) |
| --- | --- | --- | --- | --- | --- | --- | --- | --- |
| hPTH(1-37): native hPTH(1-37) fragment of human parathyroid hormone, from IPF or Immundiagnostik AG (SVSEIQLMHNLGKHLNSMERVEWLRKKLQDVHNFVAL; Parathyroid hormone; UniProt P01270 32-68, looked up, fragment) | 50% | – | – | – | – | – | – | – |
| B1 | – | 29% | 53% | 10% | ca. 50% | 76% | 98% | 33% |
